Laboratory results taken from patent US20240254229A1 (Molecular Partners, published 2024).
Blank lines part the entries; values can stand above or below the binder they belong to.

Key:
[1] = target: T1, biotinylated extracellular domains of human CD123 (uniprot ID 26951), Fc format (human, UniProt P26951 19-305, biotinylated); test: crude extract HTRF, 6 nM biotinylated CD123
T1 construct: extracellular domain
T1 sequence (looked up): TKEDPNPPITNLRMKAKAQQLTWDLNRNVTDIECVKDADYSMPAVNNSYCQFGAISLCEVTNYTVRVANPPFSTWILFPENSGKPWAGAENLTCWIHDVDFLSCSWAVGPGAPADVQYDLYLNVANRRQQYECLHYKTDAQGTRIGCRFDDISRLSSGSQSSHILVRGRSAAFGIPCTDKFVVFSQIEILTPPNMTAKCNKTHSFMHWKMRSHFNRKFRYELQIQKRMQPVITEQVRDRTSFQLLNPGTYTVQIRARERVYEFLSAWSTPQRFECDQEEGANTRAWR
From the text: (§1) Individual selected ankyrin repeat proteins specifically binding to hCD123 in solution were identified by a Homogeneous Time Resolved Fluorescence (HTRF) assay using crude extracts of ankyrin repeat protein-expressing Escherichia coli cells using standard protocols. Ankyrin repeat protein clones selected by ribosome display were cloned into derivatives of the pQE30 (Qiagen) expression vector (pMPDV045), which contains a C-terminal CD3 binding designed ankyrin repeat protein followed by a Flag tag, transformed into E. coli XL1-Blue (Stratagene), plated on LB-agar (containing 1% glucose and 50 μg/ml ampicillin) and then incubated overnight at 37° C. […]
The extract of each lysed clone was applied as a 1:500 dilution (final concentration) in PBSTB (PBS supplemented with 0.1% Tween 20® and 0.2% (w/v) BSA, pH 7.4) together with 6 nM (final concentration) biotinylated human or cyno CD123, 1:300 (final concentration) of anti-6His-D2 HTRF antibody-FRET acceptor conjugate (Cisbio) and 1:300 (final concentration) of anti-strep-Tb antibody FRET donor conjugate (Cisbio) to a well of 384 well plate and incubated for 120 minutes at RT. The HTRF was read-out on a Tecan M1000 using a 340 nm excitation wavelength and a 665±10 nm emission filter.

[2] = target: T2, extracellular domain of human CD70 (SEQ ID NO: 89), hCD70-Fc-trimer, ACRO Biosystems (human, UniProt P32970 52-193, chemically biotinylated where the biotinylated form was used); test: crude extract HTRF, 2 nM biotinylated hCD70
T2 construct: also called human CD70-Fc-trimer; Bio.CD70
T2 sequence: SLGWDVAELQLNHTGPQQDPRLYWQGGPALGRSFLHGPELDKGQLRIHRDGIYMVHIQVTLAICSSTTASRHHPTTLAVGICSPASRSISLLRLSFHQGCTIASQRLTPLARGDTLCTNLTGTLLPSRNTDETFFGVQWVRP
From the text: as §1, with “hCD70” for “hCD123”, “(pMPDV25),” for “(pMPDV045), which contains a C-terminal CD3 binding designed ankyrin repeat protein followed by a Flag tag,”, “C. Single colonies were picked into a 96 well plate (each clone in a single well) containing 160 μl growth medium (TB containing 1% glucose and 50 μg/ml ampicillin) and incubated overnight at 37° C., shaking at 800 rpm.” for “C.”
The extract of each lysed clone was applied as a 1:2000 dilution (final concentration) in PBSTB (PBS supplemented with 0.1% Tween 20® and 0.2% (w/v) BSA, pH 7.4) together with 2 nM (final concentration) biotinylated hCD70, 1:400 (final concentration) of anti-strep-Tb HTRF antibody-FRET donor conjugate (Cisbio) and 1:400 (final concentration) of anti-6His-D2 antibody FRET acceptor conjugate (Cisbio) to a well of 384 well plate and incubated for 60 minutes at RT. The HTRF was read-out on a Tecan M1000 using a 340 nm excitation wavelength and a 665±10 nm emission filter. […]

- binding result [1]: binds
B1: DARPin® protein #64 (designed binder)
chain: DLGWKLLDAAEIGQDDEVRILLAAGADVNAKDKQGITPLHIAAAHGHLEIVEVLLKAGADVNAKDEIGRTPLHLAAFKGHLEIVEVLLKAGADVNAQDIIGETPADLAAVRGHEDIAEVLQKAA
notes: CD123-specific domain; screened as crude extract

- binding result [2]: binds
B2: DARPin® protein #68 (designed binder)
chain: DLGKKLLQAARAGQLDEVRELLKAGADVNAKDQAGLTPLHIAAATGHLEIVEVLLKAGADVNAKDFSGLTPLHLAAFEGHLEIVEVLLKAGADVNAKDQHGQTPLHLAAWTGHLEIVEVLLKAGADVNAQDKSGKTPADLAARAGHQDIAEVLQKAA
notes: CD70-specific domain; screened as crude extract (vector pMPDV25)

- binding result [1]: binds
B3: DARPin® protein #63 (designed binder)
chain: DLGKKLLQAARAGQLDEVRELLKAGADVNAKDQYGRTPLHLAAIKGHLEIVEVLLKAGADVNAKDSLGYTPLHLAAVEGPLEIVEVLLKAGADVNAKDAYGQTPLHIAAAWGHLEIVEVLLKAVADVNAQDKSGKTPADLAARAGHQDIAEVLQKAA
notes: as for B1

- binding result [2]: binds
B4: DARPin® protein #69 (designed binder)
chain: DLGYKLLQAAYDGQDDEVRILLAAGADVNAKDSRGQTPLHYAASIGHLEIVEVLLKAGADVNAKDDHGWTPLHLAAWSGHLEIVEVLLKAGADVNAQDQEGTTPADLAAVQSHEDIAEVLQKAA
notes: as for B2
